# Test results reported in paper PMC9365698 (2022).
# T1: PVR (human, UniProt P15151 21-343, biotin on the biotin-acceptor site (enzymatic, co-transfected BirA))
# T1 chain: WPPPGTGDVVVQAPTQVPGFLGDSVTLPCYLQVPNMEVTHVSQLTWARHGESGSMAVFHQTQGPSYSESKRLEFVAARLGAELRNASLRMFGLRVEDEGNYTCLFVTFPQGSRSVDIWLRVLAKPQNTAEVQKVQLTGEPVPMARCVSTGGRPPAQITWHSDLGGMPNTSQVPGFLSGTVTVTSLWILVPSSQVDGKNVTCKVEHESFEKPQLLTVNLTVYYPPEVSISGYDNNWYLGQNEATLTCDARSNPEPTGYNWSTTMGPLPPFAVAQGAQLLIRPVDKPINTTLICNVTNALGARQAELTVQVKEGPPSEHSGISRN
# T2: CNTN1 (human, UniProt Q12860 21-993, biotin on the biotin-acceptor site (enzymatic, co-transfected BirA))
# T2 chain: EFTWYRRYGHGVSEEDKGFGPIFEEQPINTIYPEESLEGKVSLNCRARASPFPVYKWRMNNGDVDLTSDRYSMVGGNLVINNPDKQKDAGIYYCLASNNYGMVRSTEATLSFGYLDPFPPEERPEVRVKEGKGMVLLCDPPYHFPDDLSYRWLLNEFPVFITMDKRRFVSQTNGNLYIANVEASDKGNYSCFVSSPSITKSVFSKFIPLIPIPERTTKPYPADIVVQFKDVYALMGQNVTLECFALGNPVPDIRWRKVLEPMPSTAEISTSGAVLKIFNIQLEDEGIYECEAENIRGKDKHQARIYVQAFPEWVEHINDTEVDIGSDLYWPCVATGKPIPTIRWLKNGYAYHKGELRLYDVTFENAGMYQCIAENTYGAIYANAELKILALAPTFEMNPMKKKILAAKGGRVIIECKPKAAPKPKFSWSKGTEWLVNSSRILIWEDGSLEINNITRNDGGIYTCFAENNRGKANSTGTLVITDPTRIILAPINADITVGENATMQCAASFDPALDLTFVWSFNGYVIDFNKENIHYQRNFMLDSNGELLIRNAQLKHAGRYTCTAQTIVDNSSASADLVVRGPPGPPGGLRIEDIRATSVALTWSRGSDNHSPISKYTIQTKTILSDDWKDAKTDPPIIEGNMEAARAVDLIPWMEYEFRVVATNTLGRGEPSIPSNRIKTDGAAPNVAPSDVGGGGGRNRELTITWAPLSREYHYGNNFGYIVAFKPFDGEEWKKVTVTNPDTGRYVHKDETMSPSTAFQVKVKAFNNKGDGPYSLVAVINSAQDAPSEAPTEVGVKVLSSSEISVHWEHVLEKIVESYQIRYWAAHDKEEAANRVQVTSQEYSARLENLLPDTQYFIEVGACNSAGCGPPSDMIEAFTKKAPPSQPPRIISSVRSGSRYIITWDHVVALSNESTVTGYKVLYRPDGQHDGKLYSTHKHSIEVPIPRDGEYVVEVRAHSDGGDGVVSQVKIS
# T3: PI16 (Homo sapiens)
# T3 chain: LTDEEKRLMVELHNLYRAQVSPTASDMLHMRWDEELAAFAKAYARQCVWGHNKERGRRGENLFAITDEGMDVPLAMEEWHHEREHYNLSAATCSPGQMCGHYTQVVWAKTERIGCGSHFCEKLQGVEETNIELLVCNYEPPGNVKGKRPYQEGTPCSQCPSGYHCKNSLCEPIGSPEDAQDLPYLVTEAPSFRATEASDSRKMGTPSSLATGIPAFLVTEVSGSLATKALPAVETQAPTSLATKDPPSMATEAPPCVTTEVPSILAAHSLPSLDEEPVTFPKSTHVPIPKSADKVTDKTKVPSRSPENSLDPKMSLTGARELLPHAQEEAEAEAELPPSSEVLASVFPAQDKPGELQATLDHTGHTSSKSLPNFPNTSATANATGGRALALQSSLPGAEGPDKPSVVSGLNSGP
# T4: TNR16 (Homo sapiens)
# T4 chain: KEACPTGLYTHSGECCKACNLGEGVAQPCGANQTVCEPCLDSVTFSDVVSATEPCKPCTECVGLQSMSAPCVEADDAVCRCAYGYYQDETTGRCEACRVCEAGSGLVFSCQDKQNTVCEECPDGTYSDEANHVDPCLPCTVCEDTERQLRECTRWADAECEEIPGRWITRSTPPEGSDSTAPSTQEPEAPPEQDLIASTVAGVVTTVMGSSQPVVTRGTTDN
# T5: CDH2 (Homo sapiens)
# T5 chain: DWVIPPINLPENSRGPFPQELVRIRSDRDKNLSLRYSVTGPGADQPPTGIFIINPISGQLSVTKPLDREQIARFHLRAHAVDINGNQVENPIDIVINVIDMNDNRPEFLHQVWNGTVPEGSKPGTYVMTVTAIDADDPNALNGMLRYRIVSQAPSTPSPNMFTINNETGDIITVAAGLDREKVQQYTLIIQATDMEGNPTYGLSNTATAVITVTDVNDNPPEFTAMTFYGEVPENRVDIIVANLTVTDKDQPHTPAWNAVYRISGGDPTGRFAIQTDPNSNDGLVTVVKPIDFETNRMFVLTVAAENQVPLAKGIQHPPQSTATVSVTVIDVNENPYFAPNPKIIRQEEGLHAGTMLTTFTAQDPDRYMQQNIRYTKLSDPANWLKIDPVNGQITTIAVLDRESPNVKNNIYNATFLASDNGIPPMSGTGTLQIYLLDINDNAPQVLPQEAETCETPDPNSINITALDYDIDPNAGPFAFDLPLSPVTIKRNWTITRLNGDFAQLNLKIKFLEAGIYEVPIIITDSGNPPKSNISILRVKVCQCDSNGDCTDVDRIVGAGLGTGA
# B1: KIR2DL5A (receptor)
# chain: HEGGQDKPLLSAWPSAVVPRGGHVTLLCRSRLGFTIFSLYKEDGVPVPELYNKIFWKSILMGPVTPAHAGTYRCRGSHPRSPIEWSAPSNPLVIVVTGLFGKPSLSAQPGPTVRTGENVTLSCSSRSSFDMYHLSREGRAHEPRLPAVPSVNGTFQADFPLGPATHGGTYTCFGSLHDSPYEWSDPSDPLLVSVTGNSSSSSSSPTEPSSKTGIRRH
# modifications: biotin on the biotin-acceptor site (enzymatic, co-transfected BirA)
# B2: NRCAM (protein)
# chain: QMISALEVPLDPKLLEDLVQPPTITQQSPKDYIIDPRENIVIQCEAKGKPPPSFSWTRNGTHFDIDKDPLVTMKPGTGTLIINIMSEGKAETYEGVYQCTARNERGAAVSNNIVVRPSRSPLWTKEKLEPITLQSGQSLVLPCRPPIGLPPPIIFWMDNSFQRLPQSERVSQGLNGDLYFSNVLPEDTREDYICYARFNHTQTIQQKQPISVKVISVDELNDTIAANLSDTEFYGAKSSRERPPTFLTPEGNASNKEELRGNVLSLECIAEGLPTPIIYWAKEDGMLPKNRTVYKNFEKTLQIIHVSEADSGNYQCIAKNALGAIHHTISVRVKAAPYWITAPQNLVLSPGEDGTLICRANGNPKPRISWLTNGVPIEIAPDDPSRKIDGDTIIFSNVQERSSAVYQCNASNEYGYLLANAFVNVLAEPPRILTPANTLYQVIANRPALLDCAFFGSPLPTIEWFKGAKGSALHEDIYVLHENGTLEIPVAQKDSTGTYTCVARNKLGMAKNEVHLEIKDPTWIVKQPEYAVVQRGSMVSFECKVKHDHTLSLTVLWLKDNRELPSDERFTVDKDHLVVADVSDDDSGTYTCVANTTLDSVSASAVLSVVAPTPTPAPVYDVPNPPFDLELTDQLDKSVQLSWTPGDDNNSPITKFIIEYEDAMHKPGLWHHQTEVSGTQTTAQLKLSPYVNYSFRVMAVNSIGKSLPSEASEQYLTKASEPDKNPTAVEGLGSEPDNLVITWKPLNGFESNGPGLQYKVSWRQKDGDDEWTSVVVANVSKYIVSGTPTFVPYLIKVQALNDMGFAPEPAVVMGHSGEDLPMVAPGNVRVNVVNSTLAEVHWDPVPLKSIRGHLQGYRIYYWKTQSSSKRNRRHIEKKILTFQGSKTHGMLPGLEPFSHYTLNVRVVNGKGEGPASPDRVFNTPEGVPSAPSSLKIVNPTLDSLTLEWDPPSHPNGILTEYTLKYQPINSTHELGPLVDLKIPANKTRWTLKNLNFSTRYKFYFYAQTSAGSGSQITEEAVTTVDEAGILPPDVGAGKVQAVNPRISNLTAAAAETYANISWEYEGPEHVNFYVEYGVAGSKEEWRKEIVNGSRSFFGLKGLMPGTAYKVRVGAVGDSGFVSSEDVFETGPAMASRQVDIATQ
# B3: MPZL1 (protein)
# chain: SALEVYTPKEIFVANGTQGKLTCKFKSTSTTGGLTSVSWSFQPEGADTTVSFFHYSQGQVYLGNYPPFKDRISWAGDLDKKDASINIENMQFIHNGTYICDVKNPPDIVVQPGHIRLYVVEKENLPV
# B4: TNR21 (protein)
# chain: QPEQKASNLIGTYRHVDRATGQVLTCDKCPAGTYVSEHCTNTSLRVCSSCPVGTFTRHENGIEKCHDCSQPCPWPMIEKLPCAALTDRECTCPPGMFQSNATCAPHTVCPVGWGVRKKGTETEDVRCKQCARGTFSDVPSSVMKCKAYTDCLSQNLVVIKPGTKETDNVCGTLPSFSSSTSPSPGTAIFPRPEHMETHEVPSSTYVPKGMNSTESNSSASVRPKVLSSIQEGTVPDNTSSARGKEDVNKTLPNLQVVNHQQGPHHRHILKLLPSMEATGGEKSSTPIKGPKRGHPRQNLHKHFDINEH
# B5: VASN (receptor)
# chain: CPSGCQCSQPQTVFCTARQGTTVPRDVPPDTVGLYVFENGITMLDAGSFAGLPGLQLLDLSQNQIASLPSGVFQPLANLSNLDLTANRLHEITNETFRGLRRLERLYLGKNRIRHIQPGAFDTLDRLLELKLQDNELRALPPLRLPRLLLLDLSHNSLLALEPGILDTANVEALRLAGLGLQQLDEGLFSRLRNLHDLDVSDNQLERVPPVIRGLRGLTRLRLAGNTRIAQLRPEDLAGLAALQELDVSNLSLQALPGDLSGLFPRLRLLAAARNPFNCVCPLSWFGPWVRESHVTLASPEETRCHFPPKNAGRLLLELDYADFGCPATTTTATVPTTRPVVREPTALSSSLAPTWLSPTEPATEAPSPPSTAPPTVGPVPQPQDCPPSTCLNGGTCHLGTRHHLACLCPEGFTGLYCESQMGQGTRPSPTPVTPRPPRSLTLGIEPVSPTSLRVGLQRYLQGSSVQLRSLRLTYRNLSGPDKRLVTLRLPASLAEYTVTQLRPNATYSVCVMPLGPGRVPEGEEACGEAHTPPAVHSNHAPVTQAREGNLP
# modifications: biotin on the biotin-acceptor site (enzymatic, co-transfected BirA)
# B6: CD80 (protein)
# chain: VIHVTKEVKEVATLSCGHNVSVEELAQTRIYWQKEKKMVLTMMSGDMNIWPEYKNRTIFDITNNLSIVILALRPSDEGTYECVVLKYEKDAFKREHLAEVTLSVKADFPTPSISDFEIPTSNIRRIICSTSGGFPEPHLSWLENGEELNAINTTVSQDPETELYAVSSKLDFNMTTNHSFMCLIKYGHLRVNQTFNWNTTKQEHFPDN
# B7: FCER2 (protein)
# chain: DTTQSLKQLEERAARNVSQVSKNLESHHGDQMAQKSQSTQISQELEELRAEQQRLKSQDLELSWNLNGLQADLSSFKSQELNERNEASDLLERLREEVTKLRMELQVSSGFVCNTCPEKWINFQRKCYYFGKGTKQWVHARYACDDMEGQLVSIHSPEEQDFLTKHASHTGSWIGLRNLDLKGEFIWVDGSHVDYSNWAPGEPTSRSQGEDCVMMRGSGRWNDAFCDRKLGAWVCDRLATCTPPASEGSAESMGPDSRPDPDGRLPTPSAPLHS
# B8: FCER2 (protein)
# chain: DTTQSLKQLEERAARNVSQVSKNLESHHGDQMAQKSQSTQISQELEELRAEQQRLKSQDLELSWNLNGLQADLSSFKSQELNERNEASDLLERLREEVTKLRMELQVSSGFVCNTCPEKWINFQRKCYYFGKGTKQWVHARYACDDMEGQLVSIHSPEEQDFLTKHASHTGSWIGLRNLDLKGEFIWVDGSHVDYSNWAPGEPTSRSQGEDCVMMRGSGRWNDAFCDRKLGAWVCDRLATCTPPASEGSAESMGPDSRPDPDGRLPTPSAPLHS
# modifications: propeptide assumed removed
# Columns and labels:
# Assay in all cases: SPR
# [1] = molecular target: T1, PVR
# [2] = molecular target: T2, CNTN1
# [3] = molecular target: the molecule itself
# [4] = molecular target: T3, PI16
# [5] = molecular target: JAG1 (human, UniProt P78504 34-1067, biotin on the biotin-acceptor site (enzymatic, co-transfected BirA))
# [6] = molecular target: T4, TNR16
# [7] = molecular target: FGFR2 (Homo sapiens)
# [8] = molecular target: T5, CDH2
binder,measurement,setting,value
B1,koff,[1],~0.9 s⁻¹
B2,koff,[2],~0.7 s⁻¹
B3,koff,[3],~0.6 s⁻¹
B4,koff,[4],~2 s⁻¹
B5,koff,[5],~0.1 s⁻¹
B6,koff,[6],~1.4 s⁻¹
B7,koff,[7],~0.01 s⁻¹
B8,koff,[8],~0.6 s⁻¹
